Laboratory results taken from paper PMC10781821, “Novel recombinant aminoacylase from Paraburkholderia monticola capable of N-acyl-amino acid synthesis” (Applied Microbiology and Biotechnology, 2024).

Legend:
[1] = substrate: CCCCCCCCCCCC(=O)N[C@@H](C)C(=O)O; experiment: ninhydrin assay of released amino acid, initial rates; format: biochemical, Paraburkholderia monticola; settings: hydrolysis, 100 mM Na-borate pH 9.0, Zn2+ (50 µM), 30 °C in Results (Methods print 50 °C)
[2] = substrate: CCCCCCCCCCCC(=O)N[C@@H](Cc1ccccc1)C(=O)O; experiment: as above; format: biochemical, Paraburkholderia monticola; settings: hydrolysis, 100 mM Na-borate pH 9.0, Zn2+ (50 µM), 30 °C in Results (Methods print 50 °C)

B1: PmAcy (N-terminally StrepII-tagged aminoacylase) (Paraburkholderia monticola) (protein)
chain: MLSLVLPGLSQAQSTLPPAPPAKPVLFTNFRLFDGKSMTLRDGLYMVVEGNSISQLGQGQPASVEGKTLVDCGGKVMMPGLIDMHWHALLAALPIQVILQSDIAFVHLAASAEAERTLLRGFTTIRDAGGPSFALKQAIDSGMISGPRIYPSGAMITTTGGHGDFRPLTDLPRTSSQVTQGERDGGFAIADTEDEMRVRVREQFIQGATQIKLVGSGGVSTPRSPLDMLTFTEKQLRAAVETAADWGTYVLSHAYTPEAVQRSVAAGAQCIEHGHLMDDKTAALMAKNGTWLSTQPFISEEDVGPLAPQSREKFLEVVAGTDNAFRLARKHGIKVAFGTDLLFSQAIATRQGTMLTHMKRWYSPAEALGMATGTNGQLLALTGKRNPYPRRLGVLEEGAYADLLLVDGNPLENLDLIANPEQNLRIVMKDGKFYKNTLKA
notes: full-length codon-optimised gene, N-terminal StrepII-tag with serine-glycine linker kept; E. coli BL21 (DE3) pGro7 (GroEL/S)
[1]
  Km: 1950 µM
[2]
  Km: 210 µM
